One may read the IC50 as the concentration that gives 50% inhibition. Low readings indicate greater potency in that assay, high ones weaker potency in that assay.

In PMC4552487 (2015) one finds IC50 data, which are given here for 2 molecules.

The target of the experiment is T1, Parkin (80-465)-Biotin, wild type (UniProt O60260 80-465, biotin (position not given)).
T1 chain: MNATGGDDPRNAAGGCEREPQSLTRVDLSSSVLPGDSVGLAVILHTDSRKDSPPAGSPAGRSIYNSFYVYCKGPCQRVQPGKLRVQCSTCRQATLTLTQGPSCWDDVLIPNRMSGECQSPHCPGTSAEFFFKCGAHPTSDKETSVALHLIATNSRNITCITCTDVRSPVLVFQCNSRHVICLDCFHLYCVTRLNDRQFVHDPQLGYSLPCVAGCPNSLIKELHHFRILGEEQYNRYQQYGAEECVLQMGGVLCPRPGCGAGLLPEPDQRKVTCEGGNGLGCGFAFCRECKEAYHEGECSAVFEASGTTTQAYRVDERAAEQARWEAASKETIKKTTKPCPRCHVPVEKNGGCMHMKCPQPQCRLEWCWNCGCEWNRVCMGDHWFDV
The experiment is described as follows: competition with GST-Ubl (AlphaScreen).

B1: Ubl (protein)
chain: MIVFVRFNSSHGFPVEVDSDTSIFQLKEVVAKRQGVPADQLRVIFAGKELRNDWTVQNCDLDQQSIVHIVQRPWRK
On to B1, for which the half-inhibitory concentration (IC50) is 134 nM.

B2: Ser65-phosphorylated Parkin Ubl domain (residues 1-76) (Ubl^Phospho-Ser65) (domain or fragment)
chain: B1 chain
modifications: phosphoserine at 65
For the molecule B2, the 50% inhibitory concentration (IC50) was above 2530 nM.
